Results from US11884743B2, “Preparation and application of an intact recombinant antibody specific to clothianidin based on the identified variable region sequence” (Zhejiang University, priority 2020, dated 2024).

Assays:
[1] = antibody binding kinetics by surface plasmon resonance (SPR); conditions: CM7 chip, antibody coupled at pH 5.0, clothianidin 0.78-50 nM
Procedure: The CM7 chip was used in this invention, and the optimal pH for both antibodies was 5.0. The final signal values of the antibodies coupled on the chip were 38663 RU and 39854 RU, respectively. Kinetic experiments were performed to determine the affinity of both the parental ascitic monoclonal antibody and the intact recombinant antibody to clothianidin at a range of analyte concentrations ([…], and 0.78 nM).

[2] = heterologous competitive indirect ELISA (coating antigen imidaclothiz-OVA); type: binding
Source text: In the early preparation stage of parental ascitic monoclonal antibodies, the assay sensitivity difference was compared between the homologous competitive indirect ELISA (coating antigen was clothianidin-OVA) and the heterologous competitive indirect ELISA (coating antigen was imidaclothiz-OVA). […] Therefore, in the present disclosure, the heterologous competitive indirect ELISA was used to evaluate the sensitivity and specificity of the intact recombinant antibody against clothianidin. A 96-well plate was coated with imidaclothiz-OVA as the heterologous competitive antigen; subsequently, ELISA was performed using a rabbit anti-mouse IgG-HRP as a detection antibody, tetramethylbenzidine (TMB) as a reaction substrate, and clothianidin and other neonicotinoid pesticide standards as analytes.

B1: intact recombinant antibody against clothianidin: Recombinant mouse IgG1/kappa antibody, VH SEQ ID NO: 2, VL SEQ ID NO: 4, expressed in HEK293F cells (antibody, listed as Mus musculus, V domains shown)
VH: EVQLQQSGPELVKPGASVKMSCKASGYTFTNYVMHWVKQKPGQGLEWIGFFYPYIDYTKYNEMFKGKATLTSDTSSSTAYMELSGLTSEDSAVYFCARSQFFYRYDYFDYWGQGTALTVSS
VL: DVLMTQTPLSLPVSLGDQASISCRSSQNIVHSNGNTYLEWYLQKPGQSPKVLIYKVSNRFSGVPDRFSGSGSGTDFTLKINRVEAEDLGIYYCFQGSHVPFTFGSGTKLEIK
[1]
  Kd: 3.24 nM
[2]
  Sensitivity (IC50): 4.62 ng/mL
  detection range for ELISA (IC20-IC80): 0.92 to 23.04 ng/mL
